Measured values taken from the RNAGym collection of RNA variant scans (doi:10.7554/elife.80360).

B1: CPEB3 Ribozyme (parent)
chain: GGGGGCCACAGCAGAAGCGUUCACGUCGCGGCCCCUGUCAGAUUCUGGUGAAUCUGCGAAUUCUGCUGU

Variants of: B1
Assay: self-cleavage, relative activity (ratio to wild type); higher = more cleavage; co-transcriptional

Row | Variant | self-cleavage
1 | GGGGGCCACAGCAGAAGCGUUCCCGUCGCGGCCCCUGUCAGGUUCUGGUGAAUCUGCGAAUUCUGCUGU | 0.901
2 | GGGGGCCACAGCAGAAGCGUUCCCGUCGCGGCCUCUGUCAGAUUCUGGUGAAUCUGCGAAUUCUGCUGU | 0.936
3 | GGGGGCCACAGCAGAAGCGUUCCCGUCGCGGCCACUGUCAGAUUCUGGUGAAUCUGCGAAUUCUGCUGU | 0.696
4 | GGGGGCCACAGCAGAAGCGUUCCCGUCGCGGCCGCUGUCAGAUUCUGGUGAAUCUGCGAAUUCUGCUGU | 0.36
5 | GGGGGCCACAGCAGAAGCGUUUACGUCGCGGCCCCUGUCAGAUUCUGGUGAAUCUGCGAAUACUGCUGU | 0.167
6 | GGGGGCCACAGCAGAAGCGUUUACGUCGCGGCCCCUGUCAGAUUCUGGUGAAUCUGCGAAUGCUGCUGU | 0.207
7 | GGGGGCCACAGCAGAAGCGUUCCCGUCGCGGCGCCUGUCAGAUUCUGGUGAAUCUGCGAAUUCUGCUGU | 0.439
8 | GGGGGCCACAGCAGAAGCGUUCCCGUCGCGGCUCCUGUCAGAUUCUGGUGAAUCUGCGAAUUCUGCUGU | 0.937
9 | GGGGGCCACAGCAGAAGCGUUUACGUCGCGGCCCCUGUCAGAUUCUGGUGAAUCUGCGAAGUCUGCUGU | 0.264
10 | GGGGGCCACAGCAGAAGCGUUCCCGUCGCGGCCCCUGUCAGAUUCUGGUGAAUCUGCGAAUUCUGCUGU | 0.957
11 | GGGGGCCACAGCAGAAGCGUUCCGGUCGCGGCCCCUGUCAGAUUCUGGUGAAUCUGCGAAUUCUGCUGU | 0.414
12 | GGGGGCCACAGCAGAAGCGUUCCAGUCGCGGCCCCUGUCAGAUUCUGGUGAAUCUGCGAAUUCUGCUGU | 0.785
13 | GGGGGCCACAGCAGAAGCGUUCCUGUCGCGGCCCCUGUCAGAUUCUGGUGAAUCUGCGAAUUCUGCUGU | 0.52
14 | GGGGGCCACAGCAGAAGCGUUCCCGUCGUGGCCCCUGUCAGAUUCUGGUGAAUCUGCGAAUUCUGCUGU | 0.389
15 | GGGGGCCACAGCAGAAGCGUUCCCGUCGAGGCCCCUGUCAGAUUCUGGUGAAUCUGCGAAUUCUGCUGU | 0.603
16 | GGGGGCCACAGCAGAAGCGUUCCCGUCGCGGCCCGUGUCAGAUUCUGGUGAAUCUGCGAAUUCUGCUGU | 0.417
17 | GGGGGCCACAGCAGAAGCGUUUACGUCGCGGCCCCUGUCAGAUUCUGGUGAAUCUGCGAAUUCUGCUGC | 0.601
18 | GGGGGCCACAGCAGAAGCGUUUACGUCGCGGCCCCUGUCAGAUUCUGGUGAAUCUGCGAAUUCUGCUGG | 0.462
19 | GGGGGCCACAGCAGAAGCGUUUACGUCGCGGCCCCUGUCAGAUUCUGGUGAAUCUGCGAAUUCUGCUGA | 0.384
20 | GGGGGCCACAGCAGAAGCGUUUACGUCGCGGCCCCUGUCAGAUUCUGGUGAAUCUGCGAAUUCAGCUGU | 0.21

Row | Variant | self-cleavage
21 | GGGGGCCACAGCAGAAGCGUUUACGUCGCGGCCCCUGUCAGAUUCUGGUGAAUCUGCGAAUUCUGCAGU | 0.369
22 | GGGGGCCACAGCAGAAGCGUUCCCGUCGCGGCCCCUGUCAGAUUCUGGUGAUUCUGCGAAUUCUGCUGU | 0.917
23 | GGGGGCCACAGCAGAAGCGUUCCCGUCGCGGCCCCUGUCAGAUUCUGGUGACUCUGCGAAUUCUGCUGU | 0.921
24 | GGGGGCCACAGCAGAAGCGUUCCCGUCGCGGCCCCUGUCAGAUUCUGGUGAGUCUGCGAAUUCUGCUGU | 0.963
25 | GGGGGCCACAGCAGAAGCGUUCCCGUCGCGGCCCCUGUCAGAUUAUGGUGAAUCUGCGAAUUCUGCUGU | 0.986
26 | GGGGGCCACAGCAGAAGCGUUCCCGUCGCGGCCCCUGUCAGAUUCUGGUGAAUCUGCGGAUUCUGCUGU | 0.96
27 | GGGGGCCACAGCAGAAGCGUUCCCGUCGCGGCCCCUGUCAGAUUCUGGUGAAUCUGCGCAUUCUGCUGU | 0.69
28 | GGGGGCCACAGCAGAAGCGUUCCCGUCGCGGCCCCUGUCAGAUUCUGGUGGAUCUGCGAAUUCUGCUGU | 0.899
29 | GGGGGCCACAGCAGAAGCGUUCCCGUCGCGGCCCCUGUCAGAUUCUGGUGUAUCUGCGAAUUCUGCUGU | 0.959
30 | GGGGGCCACAGCAGAAGCGUUCCCGUCGCGGCCCCUGUCAGAUUCUGGUGCAUCUGCGAAUUCUGCUGU | 0.942
31 | GGGGGCCACAGCAGAAGCGUUCCCGUUGCGGCCCCUGUCAGAUUCUGGUGAAUCUGCGAAUUCUGCUGU | 0.358
32 | GGGGGCCACAGCAGAAGCGUUCCCGUAGCGGCCCCUGUCAGAUUCUGGUGAAUCUGCGAAUUCUGCUGU | 0.463
33 | GGGGGCCACAGCAGAAGCGUUCCCGUCGCGGACCCUGUCAGAUUCUGGUGAAUCUGCGAAUUCUGCUGU | 0.59
34 | GGGGGCCACAGCAGAAGCGUUCCCGUCGCGGGCCCUGUCAGAUUCUGGUGAAUCUGCGAAUUCUGCUGU | 0.329
35 | GGGGGCCACAGCAGAAGCGUUCCCGUCGCGGCCCCUGUGAGAUUCUGGUGAAUCUGCGAAUUCUGCUGU | 0.905
36 | GGGGGCCACAGCAGAAGCGUUCCCGUCGCGGCCCCUGUAAGAUUCUGGUGAAUCUGCGAAUUCUGCUGU | 0.798
37 | GGGGGCCACAGCAGAAGCGUUCCCGUCGCGGCCCCUGUCGGAUUCUGGUGAAUCUGCGAAUUCUGCUGU | 0.92
38 | GGGGGCCACAGCAGAAGCGUUCCCGUCGCGGCCCCUGUCAGAUUCUGGUGAAUCUGCGAGUUCUGCUGU | 0.828
39 | GGGGGCCACAGCAGAAGCGUUCCCGUCGCGGCCCCUGUCAGAUUCUGGUGAAUCUGCGACUUCUGCUGU | 0.327
